Measurements reported in patent US20250129150A1 (APOGEE THERAPEUTICS, published 2025).
Where two headings read alike, the source gives them in different places.

T1: recombinant human CD32a (167R) (human, UniProt P12318 36-218)
T1 sequence (looked up): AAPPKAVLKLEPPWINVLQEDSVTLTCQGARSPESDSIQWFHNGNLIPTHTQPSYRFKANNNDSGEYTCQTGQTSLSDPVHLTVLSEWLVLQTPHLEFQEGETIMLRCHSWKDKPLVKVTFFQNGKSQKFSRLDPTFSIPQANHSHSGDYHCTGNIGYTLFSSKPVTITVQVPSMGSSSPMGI

T2: recombinant human CD32b (human, UniProt P31994 46-217)
T2 sequence (looked up): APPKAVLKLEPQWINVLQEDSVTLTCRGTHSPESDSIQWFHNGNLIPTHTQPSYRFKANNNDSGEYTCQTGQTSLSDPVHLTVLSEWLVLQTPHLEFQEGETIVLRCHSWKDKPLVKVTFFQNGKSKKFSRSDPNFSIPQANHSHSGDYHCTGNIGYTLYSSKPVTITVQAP

T3: Recombinant Cynomolgus IL-13 Protein, His Tag (SINO BIOLOGICAL, Cat. 11057-C07H) (cynomolgus monkey, UniProt Q5I6E4 19-132 (Macaca thibetana entry))
T3 construct: also called Cyno IL-13; cynomolgus monkey IL-13
T3 chain: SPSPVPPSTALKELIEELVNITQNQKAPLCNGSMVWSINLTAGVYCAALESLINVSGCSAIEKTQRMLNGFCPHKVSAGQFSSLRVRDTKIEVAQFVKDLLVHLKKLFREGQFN

B1: Construct 133 (antibody, human IgG1, kappa, L234A L235A)
heavy: EVQLQESGPGLVKPSETLSLTCTVSGFSLNAYSVNWIRQPPGKGLEWLGMIWGDGKIVYNSALKSRLTISKDSSKNQVSLKLSSVTAADTAVYYCAGDGYYPYAMDNWGQGTTVTVSSASTKGPSVFPLAPSSKSTSGGTAALGCLVKDYFPEPVTVSWNSGALTSGVHTFPAVLQSSGLYSLSSVVTVPSSSLGTQTYICNVNHKPSNTKVDKKVEPKSCDKTHTCPPCPAPEAAGGPSVFLFPPKPKDTLYITREPEVTCVVVDVSHEDPEVKFNWYVDGVEVHNAKTKPREEQYNSTYRVVSVLTVLHQDWLNGKEYKCKVSNKALPAPIEKTISKAKGQPREPQVYTLPPSRDELTKNQVSLTCLVKGFYPSDIAVEWESNGQPENNYKTTPPVLDSDGSFFLYSKLTVDKSRWQQGNVFSCSVMHEALHNHYTQKSLSLSPG
light: DIQLTQSPSSLSASVGDRVTITCRASKSVDSYGNSFMHWYQQKPGKAPKLLIYLASNLESGVPSRFSGSGSGTDFTLTISSLQPEDFATYYCQQNNEDPRTFGGGTKVEIKRTVAAPSVFIFPPSDEQLKSGTASVVCLLNNFYPREAKVQWKVDNALQSGNSQESVTEQDSKDSTYSLSSTLTLSKADYEKHKVYACEVTHQGLSSPVTKSFNRGEC
notes: also called HC1; LC6
B2: Construct 134 (antibody, human IgG4, kappa)
heavy: EVQLQESGPGLVKPSETLSLTCTVSGFSLNAYSVNWIRQPPGKGLEWLGMIWGDGKIVYNSALKSRLTISKDSSKNQVSLKLSSVTAADTAVYYCAGDGYYPYAMDNWGQGTTVTVSSASTKGPSVFPLAPCSRSTSESTAALGCLVKDYFPEPVTVSWNSGALTSGVHTFPAVLQSSGLYSLSSVVTVPSSSLGTKTYTCNVDHKPSNTKVDKRVESKYGPPCPSCPAPEFLGGPSVFLFPPKPKDTLYITREPEVTCVVVDVSQEDPEVQFNWYVDGVEVHNAKTKPREEQFNSTYRVVSVLTVLHQDWLNGKEYKCKVSNKGLPSSIEKTISKAKGQPREPQVYTLPPSQEEMTKNQVSLTCLVKGFYPSDIAVEWESNGQPENNYKTTPPVLDSDGSFFLYSRLTVDKSRWQEGNVFSCSVMHEALHNHYTQKSLSLSLGK
light: DIQLTQSPSSLSASVGDRVTITCRASKSVDSYGNSFMHWYQQKPGKAPKLLIYLASNLESGVPSRFSGSGSGTDFTLTISSLQPEDFATYYCQQNNEDPRTFGGGTKVEIKRTVAAPSVFIFPPSDEQLKSGTASVVCLLNNFYPREAKVQWKVDNALQSGNSQESVTEQDSKDSTYSLSSTLTLSKADYEKHKVYACEVTHQGLSSPVTKSFNRGEC
notes: also called HC1; LC6
B3: Construct 136 (antibody, human IgG1, kappa, L234A L235A)
heavy: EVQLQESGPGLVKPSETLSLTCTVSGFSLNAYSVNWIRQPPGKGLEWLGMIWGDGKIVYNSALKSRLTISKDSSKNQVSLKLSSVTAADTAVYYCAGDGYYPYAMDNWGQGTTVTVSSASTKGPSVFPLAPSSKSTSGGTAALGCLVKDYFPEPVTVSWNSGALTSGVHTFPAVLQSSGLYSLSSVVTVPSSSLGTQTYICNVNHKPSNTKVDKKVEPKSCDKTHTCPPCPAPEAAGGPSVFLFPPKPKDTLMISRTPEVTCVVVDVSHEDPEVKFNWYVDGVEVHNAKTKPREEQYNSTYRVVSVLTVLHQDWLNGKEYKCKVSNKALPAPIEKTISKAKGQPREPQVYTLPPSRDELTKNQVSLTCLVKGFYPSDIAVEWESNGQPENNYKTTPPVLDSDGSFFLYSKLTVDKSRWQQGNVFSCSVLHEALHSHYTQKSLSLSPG
light: DIQLTQSPSSLSASVGDRVTITCRASKSVDSYGNSFMHWYQQKPGKAPKLLIYLASNLESGVPSRFSGSGSGTDFTLTISSLQPEDFATYYCQQNNEDPRTFGGGTKVEIKRTVAAPSVFIFPPSDEQLKSGTASVVCLLNNFYPREAKVQWKVDNALQSGNSQESVTEQDSKDSTYSLSSTLTLSKADYEKHKVYACEVTHQGLSSPVTKSFNRGEC
notes: also called HC1; LC6

Legend:
[1] = target: T4, Recombinant Human IL-13 Protein, His Tag (Acro Cat. IL3-H52H4) (human, UniProt P35225 35-146); experiment: SPR (Biacore 8K), mAb captured on Protein G chip, IL-13 as analyte
T4 construct: Bought protein; also called Hu IL-13; not shown: His Tag
Description: Samples were injected in a multi-cycle manner over freshly captured mAb, by regenerating the capture surfaces with injection of glycine pH 1.5 for 30 sec at a flow rate of 30 μL/min. The data was processed and analyzed with Biacore Insight Evaluation Software Version 2.0.15.12933 (GE Healthcare) as follows. […] The responses from the two buffer blank injections were then subtracted from the reference subtracted data (2-1) to yield double-referenced data, which were fit to an 1:1 binding model to determine the apparent association (ka) and dissociation rate constants (kd). Their ratio provided the apparent equilibrium dissociation constant or affinity constant (KD=kd/ka).

hIL-13 [2] = target: T5, hIL-13 (human, UniProt P35225 35-146, limits assumed); experiment: ELISA
T5 construct: IL-13 as used in the cell assays, the ELISA, the binning study and HDX-MS/XL-MS; also called human IL-13; Hu IL-13

hIL-13 [3] = target: T5, hIL-13; experiment: cell-based or functional assay
hIL-13 [4] = target: T5, hIL-13; experiment: cell-based or functional assay; remark: listed apart in the source
hIL-13 [5] = target: T5, hIL-13; experiment: cell-based or functional assay; remark: listed apart in the source
[6] = target: T1, recombinant human CD32a (167R); experiment: SPR, antibody captured on anti-kappa chip, recombinant human receptor as analyte
Description: (§1) Binding affinity (KD) of antibodies to Fc receptors and C1q were determined through surface plasmon resonance (SPR) using a Biacore 8K. Briefly, an SPR chip functionalized with an anti-kappa light-chain antibody was used to capture purified antibodies normalized to […], at a flow rate of 10 uL/min for 90 seconds or 120 seconds. A paired channel with only buffer was used as reference. Subsequently, varying concentrations of recombinant human CD32a (167H), CD32a (167R), CD32b, CD16a (176V), CD16a (176F), FcRn, CD64, and C1q were injected over the surface with captured purified antibody as well as the reference channel. Regeneration of the chip between different concentrations of different antigens were performed with 10 mM Glycine HCl, pH 1.5 and antibody was again captured. Association and dissociation rate constants were subsequently determined through fitting to a 1:1 Langmuir binding model or steady-state analysis model, whichever applicable, using the Biacore Insight Evaluation Software from which a KD value was derived.

recombinant human CD32b = target: T2, recombinant human CD32b; experiment: as above
Description: as §1

recombinant human CD64 = recombinant human CD64 (human, UniProt P12314 16-288); experiment: as above
Description: as §1

[7] = target: recombinant human CD16a (176V) (human, UniProt P08637 17-208); experiment: as above
Description: as §1

recombinant human FcRn = target: T6, recombinant human FcRn (human, UniProt P55899 24-297; P61769 21-119); experiment: SPR, antibody captured on anti-kappa chip, FcRn as analyte, pH 5.8; pH 5.8
T6 construct: also called neonatal Fc receptor
Description: as §1

hIL-13 [8] = target: T5, hIL-13; experiment: cell-based or functional assay; remark: listed apart in the source
hIL-13 [9] = target: T5, hIL-13; experiment: cell-based or functional assay; remark: listed apart in the source
biotinylated hIL-13 = biotinylated hIL-13 (human, UniProt P35225 35-146, limits assumed, biotinylated (site not stated)); experiment: FACS; blockade of biotinylated hIL-13 (0.05 ug/mL) binding to HEK293 cells expressing hIL-13Rα1/hIL-4Rα
Summary of the method: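 HEK293 cells stably co-expressing hIL-13Rα and hIL-4Rα (200,000/well) stained at 4 °C for 1 h, then a further 1 h at 4 °C in the dark. Median fluorescence intensity read by flow cytometry.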

hIL-13 [10] = target: T5, hIL-13; experiment: cell-based or functional assay; remark: listed apart in the source
[11] = target: T3, Recombinant Cynomolgus IL-13 Protein, …; experiment: SPR (Biacore 8K), mAb captured on Protein G chip, IL-13 as analyte
Summary of the method: (§2)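 Antigen injected multi-cycle over freshly captured mAb; surfaces regenerated with glycine pH 1.5 for 30 sec. Double-referenced sensorgrams fit to a 1:1 binding model for apparent ka and kd; KD = kd/ka.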

[12] = target: T4, Recombinant Human IL-13 Protein, His …; experiment: as above; remark: listed apart in the source
Summary of the method: as §2

recombinant human C1q = target: T7, recombinant human C1q (human, UniProt P02745 23-245; P02746 28-253; P02747 29-245, limits assumed); experiment: SPR, antibody captured on anti-kappa chip, C1q as analyte; signal relative to rituximab
T7 construct: subunit composition is from general knowledge
Description: as §1

T6 sequence (P55899 24-297 limits assumed, chain 1 of 2): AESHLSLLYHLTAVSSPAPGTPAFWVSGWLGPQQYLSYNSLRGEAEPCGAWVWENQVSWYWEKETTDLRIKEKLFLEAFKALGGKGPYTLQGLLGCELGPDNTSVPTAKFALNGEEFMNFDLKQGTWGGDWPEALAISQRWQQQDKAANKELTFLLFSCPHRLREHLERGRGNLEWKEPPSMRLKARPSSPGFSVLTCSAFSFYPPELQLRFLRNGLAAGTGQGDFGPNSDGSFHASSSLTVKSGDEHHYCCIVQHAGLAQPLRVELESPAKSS
T6 sequence (P61769 21-119 limits assumed, chain 2 of 2): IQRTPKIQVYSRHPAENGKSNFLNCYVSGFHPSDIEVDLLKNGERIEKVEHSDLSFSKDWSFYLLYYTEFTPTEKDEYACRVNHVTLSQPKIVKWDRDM
T7 sequence (P02745 23-245 limits assumed, chain 1 of 3): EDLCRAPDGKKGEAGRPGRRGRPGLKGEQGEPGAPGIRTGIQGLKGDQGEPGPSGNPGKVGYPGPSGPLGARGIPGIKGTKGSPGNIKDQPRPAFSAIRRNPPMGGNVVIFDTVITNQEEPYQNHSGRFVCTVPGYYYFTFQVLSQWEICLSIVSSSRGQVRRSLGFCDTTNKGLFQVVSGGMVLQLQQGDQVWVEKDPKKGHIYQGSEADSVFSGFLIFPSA
T7 sequence (P02746 28-253 limits assumed, chain 2 of 3): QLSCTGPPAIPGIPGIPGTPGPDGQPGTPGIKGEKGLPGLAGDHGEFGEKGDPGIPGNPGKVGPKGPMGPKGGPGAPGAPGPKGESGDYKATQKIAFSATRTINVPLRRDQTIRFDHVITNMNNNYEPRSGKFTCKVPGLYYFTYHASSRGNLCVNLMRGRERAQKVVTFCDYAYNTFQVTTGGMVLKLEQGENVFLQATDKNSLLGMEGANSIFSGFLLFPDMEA
T7 sequence (P02747 29-245 limits assumed, chain 3 of 3): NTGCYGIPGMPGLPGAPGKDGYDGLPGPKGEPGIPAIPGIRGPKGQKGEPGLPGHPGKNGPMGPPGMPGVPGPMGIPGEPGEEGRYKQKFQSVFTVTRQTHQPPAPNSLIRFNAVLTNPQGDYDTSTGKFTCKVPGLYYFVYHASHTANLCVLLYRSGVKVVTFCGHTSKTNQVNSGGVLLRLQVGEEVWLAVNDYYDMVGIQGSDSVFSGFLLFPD
recombinant human CD16a (176V), sequence (P08637 17-208 F176V): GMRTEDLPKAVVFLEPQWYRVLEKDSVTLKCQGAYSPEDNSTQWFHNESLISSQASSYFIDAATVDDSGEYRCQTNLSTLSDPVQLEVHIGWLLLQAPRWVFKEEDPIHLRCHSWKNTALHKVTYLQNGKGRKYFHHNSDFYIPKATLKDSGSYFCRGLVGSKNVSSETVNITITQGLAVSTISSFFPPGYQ
recombinant human CD64, sequence (P12314 16-288 limits assumed): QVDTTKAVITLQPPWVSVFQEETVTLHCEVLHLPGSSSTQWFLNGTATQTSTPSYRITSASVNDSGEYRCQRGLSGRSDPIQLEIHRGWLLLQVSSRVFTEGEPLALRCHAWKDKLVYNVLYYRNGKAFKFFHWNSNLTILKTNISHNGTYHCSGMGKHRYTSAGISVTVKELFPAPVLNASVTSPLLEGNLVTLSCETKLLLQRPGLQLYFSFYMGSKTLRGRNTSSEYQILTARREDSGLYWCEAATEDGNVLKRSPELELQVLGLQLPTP
T5 sequence (P35225 other isoform, or with tags, fused parts or gaps limits assumed): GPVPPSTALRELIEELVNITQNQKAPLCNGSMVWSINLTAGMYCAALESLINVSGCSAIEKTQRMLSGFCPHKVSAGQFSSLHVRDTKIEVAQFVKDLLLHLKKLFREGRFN
T4 sequence (P35225 other isoform, or with tags, fused parts or gaps limits assumed): as above
biotinylated hIL-13, sequence (P35225 other isoform, or with tags, fused parts or gaps limits assumed): as above

| Binder | Kd (hIL-13 [2]) [nM] | CCL2 Secretion IC50 (HaCaT cells) (hIL-13 [3]) [nM] | CCL26 Secretion IC50 (HaCaT cells) (hIL-13 [3]) [nM] | NTRK1 Expression IC50 (HaCaT cells) (hIL-13 [3]) [nM] | TARC Inhibition IC50 (A549 cells) (hIL-13 [5]) [nM] | binding result [6] | binding result (recombinant human CD32b) | binding result (recombinant human CD64) | binding result [7] | Kd (recombinant human FcRn) [nM] | TF-1 Proliferation Inhibition IC50 (hIL-13 [8]) [nM] | pSTAT6 Inhibition IC50 (HT-29 cells) (hIL-13 [9]) [nM] | IC50 (biotinylated hIL-13) [nM] | Kd [11] [nM] | Kd [12] [nM] | C1q (Signal Relative to Rituximab) (recombinant human C1q) [%] | also measured |
| --- | --- | --- | --- | --- | --- | --- | --- | --- | --- | --- | --- | --- | --- | --- | --- | --- | --- |
| B1 | 0.019 | 0.077 | 0.06 | 0.062 | 0.86 | no binding | no binding | no binding | no binding | 150 | 0.15 | 0.28 | 0.89 | 0.208 | 0.0777 | 15.9 | Kd [1]: 0.077 nM; CD23 Expression Inhibition IC50 (human PBMCs) (hIL-13 [4]): 0.85 nM; pSTAT6 Inhibition IC50 (human PBMCs) (hIL-13 [4]): 0.44 nM; TF-1 Proliferation Inhibition IC50 (hIL-13 [10]): 0.16 nM |
| B2 | 0.05 | – | – | – | 0.99 | – | – | – | no binding | 160 | 0.18 | 0.2 | 1.08 | 0.33 | 0.105 | 25.3 | Kd [6]: 8140 nM; Kd (recombinant human CD32b): 8620 nM; Kd (recombinant human CD64): 2.8 nM |
| B3 | 0.018 | 0.074 | 0.052 | 0.053 | 0.89 | no binding | no binding | no binding | – | 90 | 0.15 | 0.3 | 1.02 | 0.161 | 0.0698 | 25.4 | Kd [7]: 4670 nM |
